# Columns and labels:
# [1] = Dose dependent biological response to Avidin in bovine cartilage explants (viability, sGAG loss, biosynthesis); type: cell-based
# Description: Briefly, cylindrical cartilage disks (3 mm) were cored using a dermal punch and then sliced to obtain the top 1 mm of cartilage with intact superficial zone. Cartilage disks for all treatment groups were matched for depth and location along the joint surface. They were equilibrated in serum free medium (low glucose Dulbecco's Modified Eagle's Medium [DMEM; 1 g/L]) supplemented with 10 mM HEPES buffer, 0.1 mM nonessential amino acids, 0.4 mM proline, […] ascorbic acis, 100 units/ml penicillin G, 100 µg/ml streptomycin and […] amphotericin B (all from Sigma Aldrich, MO) for 48 h in a 5% CO2 incubator at 37° C. prior to any treatment. […] The medium was changed every 2 days without replenishing Avidin. This simulated the in-vivo condition of one time Avidin injection. The experiment was conducted for three time periods: 2, 4 and 10 days. Upon termination of culture at these time points, 100-200 μm thick slices were cut from the center of disks from each treatment condition. The slices were immediately stained for 2-3 minutes in the dark with fluorescein diacetate (FDA; 4 mg/ml in PBS) and propidium iodide (PI; 40 mg/ml in PBS) (both from Sigma Aldrich, MO). FDA was used to stain the viable cells green, while PI stained the non-viable cells red. The slices were washed with PBS and then imaged using Nikon fluorescence microscope with a 4× objective. Two days before the termination of culture of day 4 and day 10 experiments, the medium was supplemented with 5 μCi/mL [^35S]-sulfate and 10 μCi/mL [^3H]-proline (both from PerkinElmer, Norwalk, Conn.). […] The wet weight was measured for each disk and then digested with proteinase K (Roche, Indianapolis, Minn.) overnight. The cumulative sGAG content in the medium and digested explants was measured using the DMMB assay. The amount of radiolabel in each digested sample and medium standards (^35S and ^3H) were measured using a liquid scintillation counter. Radiolabeled concentration was calculated from the standards and then normalized to the wet weight.
# [2] = Intra-articular injection of Avidin or Neutravidin in rat knee joints: penetration, uptake and retention in joint tissues; details: for mean concentration in articular cartilage: rat, i.a. injection
# Description: Intra-articular (i.a.) injections of 50 μl of 50 μM Avidin (pI 10.5, 66 kDa, diameter ˜7 nm) or Neutravidin (neutral at pH 7, 60 kDa, diameter ˜7 nm) conjugated with Texas Red (both from Invitrogen, CA) were administered in the right knee joints of healthy 18-20 weeks old Fischer-344 rats (Charles River Laboratories). Following the injection, rat knees were flexed and extended to distribute the injected solute throughout the intra-articular space. Contralateral left knees were used as controls. Avidin injected rats were sacrificed at 4 different time points (6 h, 1 d, 4 d, 7 d) and Neutravidin injected rats were sacrificed after 1 day. The following tissue types were extracted from each joint: articular cartilage removed from the patellar groove, femoral condyle and tibial plateau using a scalpel; medial and lateral menisci; i.a. ligaments (ACL & PCL); patellar and quadriceps tendons; and femoral bone. 6 rats were used per treatment condition for a total of 30 rats. Using a digital caliper (Fisher Scientific), the joint thickness was measured before and after the injection at each time point to check for joint swelling indicating an inflammatory response to the injection.
# Tissue samples extracted from the rat joints injected with Avidin-Texas Red (Excitation at 595 nm and emission at 615 nm) and sacrificed at 6 h were imaged using a confocal microscope (OLYMPUS, FluoView FV1000) at 10× magnification by taking Z stacks. Images were taken in X-Y plane, which represents the surface through which Avidin diffused. 3D images were reconstructed using Z stacking (slice thickness˜4.5 μm) and cross-sections in the X-Z plane of these 3D images were taken.
# Tissue samples from all treatment conditions were then desorbed in 10×PBS for 48 h in 37° C. incubator to disrupt electrostatic interactions and release Avidin/Neutravidin into the desorption bath. […] At the end of the experiment, tissue samples were removed from the bath, lyophilized and the dry weight was measured. Fluorescence signal from desorption bath was quantified using a plate reader (Synergy HT, BioTek). […] The solute uptake was calculated as the concentration of labeled solute in the tissue samples normalized by tissue dry weight.
# The half-life of Avidin was calculated by fitting an exponential curve to the experimental data:
# Where, C0 is the initial and C(t) is the final Avidin concentration in tissue after time t and λ is the decay constant.
# [3] = Equilibrium uptake and desorption of Avidin and NeutrAvidin in cartilage disks; type: in vitro ADME, bovine; details: for mean uptake ratio: 24 h
# Source text: Cartilage disks were harvested from the femoropatellar grooves of 1-2 week old bovine calf knee joints (obtained from Research 87, Hopkinton, Mass.) as described previously (Patwari et al., Arthritis Rheum, 2003). Briefly, cylindrical cartilage disks (3 mm or 6 mm diameter) were cored using a dermal punch and then sliced to obtain the top 1 mm of cartilage with intact superficial zone. Cartilage disks for all treatment groups were matched for depth and location along the joint surface. The disks were then pre-equilibrated in PBS (without Ca^2±/Mg^2±) supplemented with protease inhibitors (Complete Protease Cocktail tablet in 50 mL PBS, Roche Applied Science, IN) in a 37° C., 5% CO2 incubator for 24-48 h.
# Equilibrium uptake of Avidin and NeutrAvidin: 3 mm diameter, 1 mm thick cartilage explants were incubated for specific times in 300 μl of known concentration (3 μM) of FITC-Avidin and FITC-NeutrAvidin, supplemented with protease inhibitors at 37° C. in a 96 well plate format. After removal from the absorption baths, the disks were rinsed, gently wiped and then incubated in 1× or 10×PBS supplemented with protease inhibitors for 24 h or longer as specified. At the end of the experiment, the surfaces of each disk were quickly blotted with Kimwipes and the wet weight was measured. The disks were then lyophilized and the dry weight was measured; the water weight was calculated from the tissue wet and dry weights. The fluorescence signal in the absorption and desorption baths was quantified using a plate reader (1400 Wallace Victor, PerkinElmer, MA); the solute content inside the cartilage disk was determined from the difference between the fluorescence reading of the absorption/desorption baths before and after incubation. […] The solute uptake ratio was calculated as the concentration of the FITC-solute in the cartilage (per intra-tissue water weight) normalized to the concentration of FITC-solute in the equilibration bath.
substance,measurement,setting,value
"Avidin: positively charged globular glycosylated tetrameric protein, pI 10.5, 66 kDa, diameter ~7 nm (Invitrogen); SEQ ID NO 1",cumulative sGAG loss to medium vs untreated control,"[1]; 100 nM and 1 μM, 4 and 10 days",no significant difference
same,cumulative sGAG loss to medium,"[1]; 100 μM, 4 days",14.6%
same,cumulative sGAG loss to medium,"[1]; 100 μM, 10 days",20%
same,increase in sGAG loss compared to untreated control,"[1]; 100 μM, both 4 and 10 days",about 2 folds
same,rate of protein and sGAG synthesis,"[1]; increasing dose 0-100 μM, last 48 h of culture",no significant changes
same,chondrocyte viability (live-dead fluorescence),"[1]; one time dose 0-100 μM, 2, 4 and 10 days",no significant difference in cell viability
same,safe dose,"[1]; one time dose, bovine cartilage explants",at least 1 μM
same,"knee joint inflammation (swelling, stiffness) after i.a. injection","[2]; 6 h, 1 d, 4 d and 7 d",did not present any signs of swelling or joint stiffness
same,concentration in articular cartilage as percent of 24 h value,[2]; 4 days,10.3%
same,concentration in articular cartilage as percent of 24 h value,[2]; 7 days,4.1%
same,Half-life,[2]; Cartilage,29.0 h
same,Half-life,[2]; Ligament,25.7 h
same,Half-life,[2]; Meniscus,21.4 h
same,Half-life,[2]; Patella Tendon,16.9 h
same,Half-life,[2]; Quadriceps Tendon,27.2 h
same,detection in the femoral bone,[2]; any time point,Neither Avidin nor Neutravidin was detected
same,time to diffuse through the full thickness of joint tissues after i.a. injection,"[2]; cartilage, menisci, ligaments, tendons, confocal",≤ 6 h
same,dwell time inside the joint,[2]; rat knee,7 days
same,mean concentration in articular cartilage,[2]; 6 h,4.7 μg/mg tissue dry weight
same,mean concentration in articular cartilage,[2]; 24 h,3.3 µg/mg
same,mean concentration in articular cartilage,[2]; 4 days,0.34 µg/mg
same,mean concentration in articular cartilage,[2]; 7 days,0.13 µg/mg
same,percent of absorbed solute diffused out of the cartilage,"[3]; 10×PBS, within 24 h",~69%
same,mean uptake ratio,[3]; 40% GAG-depleted cartilage (chondroitinase-ABC),24
same,higher uptake of Avidin compared to NeutrAvidin,[3]; normal cartilage,greater than 400 times
same,mean uptake ratio,[3]; normal cartilage,~183
